In patent publication US20250154231A1:
Where two headings read alike, the source gives them in different places.

Legend:
Experiment in all cases: cell-based or functional assay
[1] = target: SARS-CoV-2 Alpha spike (S) protein (SARS-CoV-2) (UniProt P0DTC2)
[2] = target: SARS-CoV-2 Beta spike (S) protein (SARS-CoV-2) (UniProt P0DTC2)
[3] = target: SARS-CoV-2 Delta spike (S) protein (SARS-CoV-2) (UniProt P0DTC2)
[4] = target: SARS-CoV-2 Gamma spike (S) protein (SARS-CoV-2) (UniProt P0DTC2)
[5] = target: SARS-CoV-2 Omicron BA.1 spike (S) protein of the live isolate (SARS-CoV-2) (UniProt P0DTC2)
[6] = target: SARS-CoV-2 Omicron BA.1.1 spike (S) protein (SARS-CoV-2) (UniProt P0DTC2)
[7] = target: SARS-CoV-2 Omicron BA.2 spike (S) protein (SARS-CoV-2) (UniProt P0DTC2)
[8] = target: SARS-CoV-2 Victoria spike (S) protein (SARS-CoV-2) (UniProt P0DTC2)
[9] = target: SARS-CoV-2 spike (S) protein, Omicron BA.1 (SARS-CoV-2) (UniProt P0DTC2)
[10] = target: SARS-CoV-2 spike (S) protein, Omicron BA.1.1 (SARS-CoV-2) (UniProt P0DTC2)
[11] = target: SARS-CoV-2 spike (S) protein, Omicron BA.2 (SARS-CoV-2) (UniProt P0DTC2)
[12] = target: SARS-CoV-2 spike (S) protein, Omicron BA.3 (SARS-CoV-2) (UniProt P0DTC2)
[13] = target: SARS-CoV-2 spike (S) protein, Omicron BA.4.6 (SARS-CoV-2) (UniProt P0DTC2)
[14] = target: SARS-CoV-2 spike (S) protein, Omicron BA.4/5 (SARS-CoV-2) (UniProt P0DTC2)
[15] = target: SARS-CoV-2 spike (S) protein, Victoria strain (SARS-CoV-2) (UniProt P0DTC2)
[16] = target: SARS-CoV-2 spike (S) protein, Omicron BA.2.75 (SARS-CoV-2) (UniProt P0DTC2)
[17] = target: SARS-CoV-2 spike (S) protein, Omicron BA.2 (SARS-CoV-2) (UniProt P0DTC2); remark: listed apart in the source
[18] = target: SARS-CoV-2 spike (S) protein, Omicron BA.2.3.20 (SARS-CoV-2) (UniProt P0DTC2)
[19] = target: SARS-CoV-2 spike (S) protein, Omicron BA.2.75 (SARS-CoV-2) (UniProt P0DTC2); remark: listed apart in the source
[20] = target: SARS-CoV-2 spike (S) protein, Omicron BA.2.75.2 (SARS-CoV-2) (UniProt P0DTC2)
[21] = target: SARS-CoV-2 spike (S) protein, Omicron BA.4.6 (SARS-CoV-2) (UniProt P0DTC2); remark: listed apart in the source
[22] = target: SARS-CoV-2 spike (S) protein, Omicron BA.4/5 (SARS-CoV-2) (UniProt P0DTC2); remark: listed apart in the source
[23] = target: SARS-CoV-2 spike (S) protein, Omicron BJ.1 (SARS-CoV-2) (UniProt P0DTC2)
[24] = target: SARS-CoV-2 spike (S) protein, Victoria strain (SARS-CoV-2) (UniProt P0DTC2); remark: listed apart in the source

Row | Substance | IC50, authentic virus neutralization [1] | IC50, authentic virus neutralization [2] | IC50, authentic virus neutralization [3] | IC50, authentic virus neutralization [4] | IC50, authentic virus neutralization [5] | IC50, authentic virus neutralization [6] | IC50, pseudoviral neutralization [9] | pseudovirus neutralisation IC50 [9] | IC50, pseudoviral neutralization [10] | pseudovirus neutralisation IC50 [10] | IC50, pseudoviral neutralization [11] | pseudovirus neutralisation IC50 [11] | IC50, pseudoviral neutralization [12] | pseudovirus neutralisation IC50 [12] | IC50, pseudoviral neutralization [13] | IC50, pseudoviral neutralization [14] | pseudovirus neutralisation IC50 [14] | IC50, pseudoviral neutralization [15] | pseudovirus neutralisation IC50 [15] | pseudovirus neutralisation IC50 [16] | further results
1 | REGN10987 (antibody) | 0.028 µg/mL | 0.007 µg/mL | 0.017 µg/mL | 0.013 µg/mL | > 10 µg/mL | > 10 µg/mL | > 10 µg/mL | > 10 µg/mL | > 10 µg/mL | > 10 µg/mL | 0.616 µg/mL | 0.616 µg/mL | > 10 µg/mL | > 10 µg/mL | > 10 µg/mL | > 10 µg/mL | > 10 µg/mL | 0.002 µg/mL | 0.002 µg/mL | > 10 µg/mL | IC50, authentic virus neutralization [7]: 1.85 µg/mL; IC50, authentic virus neutralization [8]: 0.032 µg/mL; IC50, pseudoviral neutralization [17]: 0.615 µg/mL; IC50, pseudoviral neutralization [18]: > 10 µg/mL; IC50, pseudoviral neutralization [19]: > 10 µg/mL; IC50, pseudoviral neutralization [20]: > 10 µg/mL; IC50, pseudoviral neutralization [21]: > 10 µg/mL; IC50, pseudoviral neutralization [22]: > 10 µg/mL; IC50, pseudoviral neutralization [23]: > 10 µg/mL; IC50, pseudoviral neutralization [24]: 0.002 µg/mL
2 | ADG20 (antibody) | 0.006 µg/mL | 0.01 µg/mL | 0.006 µg/mL | 0.009 µg/mL | 1.1 µg/mL | 1.27 µg/mL | 0.348 µg/mL | 0.348 µg/mL | 0.253 µg/mL | 0.253 µg/mL | > 10 µg/mL | > 10 µg/mL | > 10 µg/mL | > 10 µg/mL | > 10 µg/mL | > 10 µg/mL | > 10 µg/mL | 0.003 µg/mL | 0.003 µg/mL | > 10 µg/mL | IC50, authentic virus neutralization [7]: > 10 µg/mL; IC50, authentic virus neutralization [8]: 0.004 µg/mL; IC50, pseudoviral neutralization [17]: > 10 µg/mL; IC50, pseudoviral neutralization [18]: > 10 µg/mL; IC50, pseudoviral neutralization [19]: > 10 µg/mL; IC50, pseudoviral neutralization [20]: > 10 µg/mL; IC50, pseudoviral neutralization [21]: > 10 µg/mL; IC50, pseudoviral neutralization [22]: > 10 µg/mL; IC50, pseudoviral neutralization [23]: > 10 µg/mL
3 | Ly-CoV16 (antibody) | 3.23 µg/mL | > 10 µg/mL | 0.012 µg/mL | > 10 µg/mL | > 10 µg/mL | > 10 µg/mL | > 10 µg/mL | > 10 µg/mL | > 10 µg/mL | > 10 µg/mL | > 10 µg/mL | > 10 µg/mL | > 10 µg/mL | > 10 µg/mL | > 10 µg/mL | > 10 µg/mL | > 10 µg/mL | 0.014 µg/mL | 0.014 µg/mL | > 10 µg/mL | IC50, authentic virus neutralization [7]: > 10 µg/mL; IC50, authentic virus neutralization [8]: 0.034 µg/mL; IC50, pseudoviral neutralization [18]: > 10 µg/mL; IC50, pseudoviral neutralization [19]: > 10 µg/mL; IC50, pseudoviral neutralization [20]: > 10 µg/mL; IC50, pseudoviral neutralization [21]: > 10 µg/mL; IC50, pseudoviral neutralization [22]: > 10 µg/mL; IC50, pseudoviral neutralization [23]: > 10 µg/mL; IC50, pseudoviral neutralization [24]: 0.014 µg/mL
4 | ADG10 (antibody) | 0.01 µg/mL | 0.011 µg/mL | 0.026 µg/mL | 0.003 µg/mL | > 10 µg/mL | > 10 µg/mL | > 10 µg/mL | > 10 µg/mL | > 10 µg/mL | > 10 µg/mL | > 10 µg/mL | > 10 µg/mL | > 10 µg/mL | > 10 µg/mL | > 10 µg/mL | > 10 µg/mL | > 10 µg/mL | 0.007 µg/mL | 0.007 µg/mL | > 10 µg/mL | IC50, authentic virus neutralization [7]: > 10 µg/mL; IC50, authentic virus neutralization [8]: 0.006 µg/mL
5 | Ly-CoV555 (antibody) | – | – | – | – | – | – | > 10 µg/mL | > 10 µg/mL | > 10 µg/mL | > 10 µg/mL | > 10 µg/mL | > 10 µg/mL | > 10 µg/mL | > 10 µg/mL | > 10 µg/mL | > 10 µg/mL | > 10 µg/mL | 0.002 µg/mL | 0.002 µg/mL | > 10 µg/mL | IC50, pseudoviral neutralization [17]: > 10 µg/mL; IC50, pseudoviral neutralization [18]: > 10 µg/mL; IC50, pseudoviral neutralization [19]: > 10 µg/mL; IC50, pseudoviral neutralization [20]: > 10 µg/mL; IC50, pseudoviral neutralization [21]: > 10 µg/mL; IC50, pseudoviral neutralization [22]: > 10 µg/mL; IC50, pseudoviral neutralization [23]: > 10 µg/mL; IC50, pseudoviral neutralization [24]: 0.002 µg/mL
